Test results reported in patent US20230057904A1 (Chugai, published 2023).

T1: human CLDN3 (human, UniProt O15551 1-220)
T1 construct: also called hCLDN3; hCLDN3/BaF
T1 sequence: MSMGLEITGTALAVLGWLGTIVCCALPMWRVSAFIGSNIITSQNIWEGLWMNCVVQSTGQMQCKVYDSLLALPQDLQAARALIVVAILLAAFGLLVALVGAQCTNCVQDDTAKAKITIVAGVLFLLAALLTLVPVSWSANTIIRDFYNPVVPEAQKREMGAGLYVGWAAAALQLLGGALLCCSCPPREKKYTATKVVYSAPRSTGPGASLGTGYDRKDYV

T2: human CLDN4 (human, UniProt O14493 1-209)
T2 construct: also called hCLDN4; hCLDN4/BaF
T2 sequence: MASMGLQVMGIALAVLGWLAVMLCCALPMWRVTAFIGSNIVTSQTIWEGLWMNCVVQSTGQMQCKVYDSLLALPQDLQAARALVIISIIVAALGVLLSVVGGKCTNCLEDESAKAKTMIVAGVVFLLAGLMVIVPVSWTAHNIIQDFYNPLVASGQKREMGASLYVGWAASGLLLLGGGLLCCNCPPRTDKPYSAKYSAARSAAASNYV

T3: mouse CLDN3 (mouse, UniProt Q9Z0G9 1-219)
T3 construct: also called mCLDN3; mCLDN3/FS293
T3 sequence: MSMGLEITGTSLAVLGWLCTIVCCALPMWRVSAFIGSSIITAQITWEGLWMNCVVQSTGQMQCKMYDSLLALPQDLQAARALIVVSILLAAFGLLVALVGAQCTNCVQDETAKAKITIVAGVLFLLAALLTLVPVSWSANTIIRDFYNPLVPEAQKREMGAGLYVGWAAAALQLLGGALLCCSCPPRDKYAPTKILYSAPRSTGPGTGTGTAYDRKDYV

T4: mouse CLDN9 (mouse, UniProt Q9Z0S7 1-217)
T4 construct: also called mCLDN9; mCLDN9/FS293
T4 sequence: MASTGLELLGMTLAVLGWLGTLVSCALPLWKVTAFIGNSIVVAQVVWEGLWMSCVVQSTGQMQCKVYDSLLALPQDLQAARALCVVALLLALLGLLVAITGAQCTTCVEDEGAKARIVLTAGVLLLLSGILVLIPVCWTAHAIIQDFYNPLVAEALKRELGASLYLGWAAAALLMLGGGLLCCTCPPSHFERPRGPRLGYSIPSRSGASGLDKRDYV

T5: mouse CLDN6 (mouse, UniProt Q9Z262 1-219)
T5 construct: also called mCLDN6; mCLDN6/FS293
T5 chain: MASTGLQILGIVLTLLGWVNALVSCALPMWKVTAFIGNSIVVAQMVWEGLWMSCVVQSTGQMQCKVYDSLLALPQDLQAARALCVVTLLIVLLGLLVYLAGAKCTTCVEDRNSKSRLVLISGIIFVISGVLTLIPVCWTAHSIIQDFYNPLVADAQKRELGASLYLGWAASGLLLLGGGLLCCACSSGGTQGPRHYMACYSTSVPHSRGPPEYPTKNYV


Experiments:
ECM [1] = experiment: ECM binding assay, ECL reaction
ECM [2] = experiment: ECM binding assay, ECL reaction, value divided by that of MRA
human CLDN3 [3] = target: T1, human CLDN3; experiment: flow cytometry on hCLDN3/BaF (Ba/F3 transfectant), 15 micro g/ml antibody, Alexa Fluor 488 anti-human IgG; histogram against KLH/TR01
Description: (§1) Amino acid sequence are highly conserved among CLDN3, CLDN4, CLDN6 and CLDN9. Thus we examined CLDN6 binding specificity by FACS analysis. hCLDN6/BaF, hCLDN3/BaF, hCLDN4/BaF, and hCLDN9/BaF were incubated with CS2201, CS2961, AH05/TR01 and 6PHU3/TR01 at 15 micro g/ml. KLH/TR01 generated in Example 2-3 was used as a staining control. Binding of each antibody was detected with Alexa Fluor 488-conjugated anti human IgG (Invitrogen). Dead cells were separated by eFlour 780 (Invitrogen) staining.

human CLDN4 = target: T2, human CLDN4; experiment: flow cytometry on hCLDN4/BaF (Ba/F3 transfectant), 15 micro g/ml antibody, Alexa Fluor 488 anti-human IgG; histogram against KLH/TR01
Source text: FIG. 35-1. Binding activity of anti-CLDN6/CD3 bispecific antibodies (CS2201, CS2961, AH05/TR01, and 6PHU3/TR01) to human CLDN family proteins (CLDN3, CLDN4, CLDN6, and CLDN9). Binding activity of anti-CLDN6/CD3 bispecific antibodies to BaF3 transfectants (hCLDN6/BaF, hCLDN3/BaF, hCLDN4/BaF, and hCLDN9/BaF) was examined by flow cytometer in a concentration of 15 micro g/ml, and plotted as histogram. KLH/TR01 was used as a negative control. The specificity of CS2961 to human CLDN6 was highest among the tested antibodies.
as §1

human CLDN3 [4] = target: T1, human CLDN3; experiment: flow cytometry, FreeStyle 293-F transfectants expressing human CLDN3, anti-human IgG Alexa Fluor 647; MFI
Description: (§2) Antibodies were mixed with FreeStyle™ 293-F cells transiently expressed human and mouse CLDN3, 4, 6, and 9 at final concentration of 10 micro g/mL. After 1 hour of incubation, cells were washed by 0.1% BSA containing D-PBS(−), and incubated in 5 micro g/mL of either Goat anti-Human IgG (H+L) Cross-Adsorbed Secondary Antibody, Alexa Fluor 647 (Invitrogen, A21445) or Goat anti-Mouse IgG (H+L) Highly Cross-Adsorbed Secondary Antibody, Alexa Fluor 647 (Invitrogen, A21236), for 1 hour. Cells were then washed with 0.1% BSA containing D-PBS(−), resuspended in 5 micro L of 0.1% BSA containing D-PBS(−), and analyzed by flow cytometer (iQue Screener, intellicyte).

mouse CLDN3 = target: T3, mouse CLDN3; experiment: flow cytometry, FreeStyle 293-F transfectants expressing mouse CLDN3, anti-human IgG Alexa Fluor 647; MFI
Description: as §2

mouse CLDN9 = target: T4, mouse CLDN9; experiment: flow cytometry, FreeStyle 293-F transfectants expressing mouse CLDN9, anti-human IgG Alexa Fluor 647; MFI
Description: as §2

mouse CLDN6 = target: T5, mouse CLDN6; experiment: flow cytometry, FreeStyle 293-F transfectants expressing mouse CLDN6, 10 micro g/mL antibody, anti-human IgG Alexa Fluor 647; MFI
Description: as §2

Molecule	Luminescence (ECM [1])	Luminescence ratio vs MRA (ECM [2]) [fold]	also measured
MRA (antibody)	13000	1	–
bivalent IgG antibody 25H0021/20L0072 (antibody, V domains shown) VH: QVQLVESGGGVVQPGRSLRLSCAASGFTFSSLTMSWVRQAPGQGLEWMGTISSGGGRTYYPDSVKGRFTISRDNSKNTLYLQMNSLRAEDTAVYYCARGDYRYDGFAYWGQGTLVTVSS VL: DIQMTQSPSSLSASVGDRVTITCRASYNIDSYLAWYQQKPGKAPKLLIYASTLLVDGVPSRFSGSRSGTDFTLTISSLQPEDFATYYCQHYYSIPYTFGQGTKLEIK	32900	2.52	–
bivalent IgG antibody 25H0322/20L0072 (antibody, V domains shown) VH: QVQLVESGGGVVQPGRSLRLSCAASGFTFSSYTMSWVRQAPGQGLEWMGTISSGGGRTYYPFSVKGRFTISRDNSKNTLYLQMNSLRAEDTAVYYCARGDYRYDGFAYWGQGTLVTVSS VL: DIQMTQSPSSLSASVGDRVTITCRASYNIDSYLAWYQQKPGKAPKLLIYASTLLVDGVPSRFSGSRSGTDFTLTISSLQPEDFATYYCQHYYSIPYTFGQGTKLEIK	70600	5.41	–
CS2201 (bispecific antibody, V domains shown, Fab arm exchange, silent Fc; also called 25H/20L0532//TR01) VH 1: QVQLVESGGGVVQPGRSLRLSCAASGFTFSSYTMSWVRQAPGQGLEWMGTISSGGGRTYYPDSVKGRFTISRDNSKNTLYLQMNSLRAEDTAVYYCARGDYRYDGFAYWGQGTLVTVSS VL 1: DIQMTQSPSSLSASVGDRVTITCRASYNIDSYLAWYQQKPGKAPKLLIYYSTLLVDGVPSRFSGSRSGTDFTLTISSLQPEDFATYYCQHYYSIPYTFGQGTKLEIK VH 2: QVQLVESGGGVVQPGGSLRLSCAASGFTFSNAWMHWVRQAPGKGLEWVAQIKDKSQNYATYVAESVKGRFTISRADSKNSIYLQMNSLKTEDTAVYYCRYVHYAAGYGVDIWGQGTTVTVSS VL 2: DIVMTQSPLSLPVTPGEPASISCRSSQPLVHSNRNTYLHWYQQKPGQAPRLLIYKVSNRFSGVPDRFSGSGSGTDFTLKISRVEAEDVGVYYCGQGTQVPYTFGQGTKLEIK	–	–	binding result (human CLDN3 [3]): binds; binding result (human CLDN4): binds
bivalent IgG antibody 25H0024/20L0072 (antibody, V domains shown) VH: QVQLVESGGGVVQPGRSLRLSCAASGFTFSSVTMSWVRQAPGQGLEWMGTISSGGGRTYYPDSVKGRFTISRDNSKNTLYLQMNSLRAEDTAVYYCARGDYRYDGFAYWGQGTLVTVSS VL: DIQMTQSPSSLSASVGDRVTITCRASYNIDSYLAWYQQKPGKAPKLLIYASTLLVDGVPSRFSGSRSGTDFTLTISSLQPEDFATYYCQHYYSIPYTFGQGTKLEIK	29600	2.27	–
bivalent IgG antibody 25H0562/20L0072 (antibody, V domains shown) VH: QVQLVESGGGVVQPGRSLRLSCAASGFTFSSYTMSWVRQAPGQGLEWMGTISSGGGRTYYPDSVKGRFTISRDNSKNTLYLQMNSLRAEDTAVYYCARGDYRYDGFAMWGQGTLVTVSS VL: DIQMTQSPSSLSASVGDRVTITCRASYNIDSYLAWYQQKPGKAPKLLIYASTLLVDGVPSRFSGSRSGTDFTLTISSLQPEDFATYYCQHYYSIPYTFGQGTKLEIK	32600	2.5	–
bivalent IgG antibody 25H0176/20L0072 (antibody, V domains shown) VH: QVQLVESGGGVVQPGRSLRLSCAASGFTFSSYTMSWVRQAPGQGLEWMGTISSKGGRTYYPDSVKGRFTISRDNSKNTLYLQMNSLRAEDTAVYYCARGDYRYDGFAYWGQGTLVTVSS VL: DIQMTQSPSSLSASVGDRVTITCRASYNIDSYLAWYQQKPGKAPKLLIYASTLLVDGVPSRFSGSRSGTDFTLTISSLQPEDFATYYCQHYYSIPYTFGQGTKLEIK	77000	5.91	–
bivalent IgG antibody 25H0042/20L0072 (antibody, V domains shown) VH: QVQLVESGGGVVQPGRSLRLSCAASGFTFSSYVMSWVRQAPGQGLEWMGTISSGGGRTYYPDSVKGRFTISRDNSKNTLYLQMNSLRAEDTAVYYCARGDYRYDGFAYWGQGTLVTVSS VL: DIQMTQSPSSLSASVGDRVTITCRASYNIDSYLAWYQQKPGKAPKLLIYASTLLVDGVPSRFSGSRSGTDFTLTISSLQPEDFATYYCQHYYSIPYTFGQGTKLEIK	40400	3.1	–
AH05/TR01 (bispecific antibody, V domains shown, IgG format by Fab arm exchange, silent Fc; also called anti-CLDN6/CD3 bispecific antibody AH05/TR01) VH 1: EVQVEQSGPELVKPGASVKISCKTSGYTFTEYTMHWVKQSHGKSLEWIGGINPNNGNTRYNQKFKGKATLTVDKSSSTAYMELRTLTSEDSAVYYCARCGDFDLFFFFAYWGQGTLVTVSA VL 1: DIVMTQSQKFMSTSVGDRVSVTCKASQNVGSNVAWYQQKPGQSPEGLISSASSRFSGVPDRFTGSGSGTDFTLTITNVQSEDLAEYFCQQYNSYPFTFGSGTELEIK VH 2: QVQLVESGGGVVQPGGSLRLSCAASGFTFSNAWMHWVRQAPGKGLEWVAQIKDKSQNYATYVAESVKGRFTISRADSKNSIYLQMNSLKTEDTAVYYCRYVHYAAGYGVDIWGQGTTVTVSS VL 2: DIVMTQSPLSLPVTPGEPASISCRSSQPLVHSNRNTYLHWYQQKPGQAPRLLIYKVSNRFSGVPDRFSGSGSGTDFTLKISRVEAEDVGVYYCGQGTQVPYTFGQGTKLEIK	–	–	binding result (human CLDN3 [4]): no binding (tested: 10 micro g/mL); binding result (mouse CLDN3): no binding (tested: 10 micro g/mL); binding result (mouse CLDN9): no binding (tested: 10 micro g/mL); binding result (mouse CLDN6): binds
AE3-20/TR01 (bispecific antibody, V domains shown, also called anti-CLDN6/CD3 bispecific antibody AE3-20/TR01; AE3.20H/AE3.20L//TR01) VH 1: EVKLVESGGGLVKPGGSLKLSCAASGFTFNSYTMSWVRQTPAKRLEWVVTISSGGGRTYYPDSVKGRFTISRDNARNTLYLQMSSLRSEDTAMYYCIRGDYRYDGFAYWGQGTLVTVST VL 1: DIQMTQSPASLSASVGETVTITCRASENIDSYLAWYQQKQGKSPQLLVYASTLLVDGVPSRFSGSRSGTQFSLKINSLQSEDVARYYCQHYYSIPYTFGSGTKLEIK VH 2: QVQLVESGGGVVQPGGSLRLSCAASGFTFSNAWMHWVRQAPGKGLEWVAQIKDKSQNYATYVAESVKGRFTISRADSKNSIYLQMNSLKTEDTAVYYCRYVHYAAGYGVDIWGQGTTVTVSS VL 2: DIVMTQSPLSLPVTPGEPASISCRSSQPLVHSNRNTYLHWYQQKPGQAPRLLIYKVSNRFSGVPDRFSGSGSGTDFTLKISRVEAEDVGVYYCGQGTQVPYTFGQGTKLEIK	–	–	binding result (human CLDN3 [4]): no binding (tested: 10 micro g/mL); binding result (mouse CLDN3): no binding (tested: 10 micro g/mL)
